Data as given in patent US20250163160A1 (Amgen, published 2025).

What was measured:
[1] = target: T1, human FGF21 receptor (FGF21R): full length human FGFR1c and full length human β-Klotho co-expressed on cells (human, UniProt P11362 22-822; Q86Z14 53-1044); experiment: cell-based or functional assay
[2] = target: T1, human FGF21 receptor (FGF21R): full …; experiment: cell-based or functional assay; remark: listed apart in the source

Binder | EC50 (nM), Erk-phosphorylation, human adipocyte assay [1] | EC50 (read off the curve); luciferase reporter (RLU) in AM-1/D FGFR1c+β-Klotho Luc cells, FGF21 alone (0 nM 39F11) [2]
16H7 variant, heavy chain H3, light chain D49A (antibody, human IgG2, lambda, V domains shown) VH: not shown VL: SYVLTQPPSVSVAPGQTARITCGGNNIGSESVHWYQQKPGQAPVLVVYADSDRPSGIPERFSGSNSGNTATLTISRVEAGDEADYYCQVWDGNSDHVVFGGGTKLTVLG | 0.63 nM | –
16H7 variant, heavy chain H3, light chain D91A (antibody, human IgG2, lambda, V domains shown) VH: not shown VL: SYVLTQPPSVSVAPGQTARITCGGNNIGSESVHWYQQKPGQAPVLVVYDDSDRPSGIPERFSGSNSGNTATLTISRVEAGDEADYYCQVWAGNSDHVVFGGGTKLTVLG | 1.3 nM | –
Fibroblast Growth Factor 21 (FGF21), human (ligand, Alexa 647-NHS label (Example 1); biotin (Example 8, second Biacore analysis)) HPIPDSSPLLQFGGQVRQRYLYTDDAQQTEAHLEIREDGTVGGAADQSPESLLQLKALKPGVIQILGVKTSRFLCQRPDGALYGSLHFDPEACSFRELLLEDGYNVYQSEAHGLPLHLPGNKSPHRDPAPRGPARFLPLPGLPPAPPEPPGILAPQPPDVGSSDPLSMVGPSQGRSPSYAS | – | 1 to 2 nM
